Results reported in article PMC12520519 (2025).

Molecular target: receptor binding domain (RBD) of the SARS-CoV-2 spike protein, WT (SARS-CoV-2, UniProt P0DTC2)
Experiment: FACS

B1: Delta-6 scFv (scFv, V domains shown)
VH: EVQLLESGGGLVQPGGTLRLSCAASGFIVSSNYMSWVRQAPGKGLEWVSLVYPGGSTYYADSVKGRFTVSRDNSKNTLYLQMNSLRAEDMAVYYCARDLPSGVDAVDAFDIWGQGTMVTVSS
VL: DIRVTQSPSSLSASVGDRVSITCRASQIISGYLNWYQQKPGSAPQLLIYASSSLQSGVPPRFSGSRSGTEFTLTISSLQPEDFATYYCQQTYSIPFTFGPGTKVDIK
Kd: 6.3 nM
